From US20110091994A1, “Methods for Screening Compounds for Treating and/or Preventing an Hepatitis C Virus Infection” (priority 2008, published 2011)

B1: CCDC21 (protein, UniProt Q6P2H3 1-762, looked up)
Centrosomal protein of 85 kDa: MAMQEKYPTEGISHVTSPSSDVIQKGSSLGTEWQTPVISEPFRSRFSRCSSVADSGDTAIGTSCSDIAEDFCSSSGSPPFQPIKSHVTIPTAHVMPSTLGTSPAKPNSTPVGPSSSKLPLSGLAESVGMTRNGDLGAMKHSPGLSRDLMYFSGATGENGIEQSWFPAVGHERQEEARKFDIPSMESTLNQSAMMETLYSDPHHRVRFHNPRTSTSKELYRVLPEAKKAPGSGAVFERNGPHSNSSGVLPLGLQPAPGLSKPLPSQVWQPSPDTWHPREQSCELSTCRQQLELIRLQMEQMQLQNGAICHHPAAFGPSLPILEPAQWISILNSNEHLLKEKELLIDKQRKHISQLEQKVRESELQVHSALLGRPAPFGDVCLLRLQELQRENTFLRAQFAQKTEALSREKIDLEKKLSASEVEVQLIRESLKVALQKHSEEVKKQEERVKGRDKHINNLKKKCQKESEQNREKQQRIETLERYLADLPTLEDHQKQSQQLKDSELKSTELQEKVTELESLLEETQAICREKEIQLESLRQREAEFSSAGHSLQDKQSVEETSGEGPEVEMESWQKRYDSLQKIVEKQQQKMDQLRSQVQSLEQEVAQEEGTSQALREEAQRRDSALQQLRTAVKELSVQNQDLIEKNLTLQEHLRQAQPGSPPSPDTAQLALELHQELASCLQDLQAVCSIVTQRAQGHDPNLSLLLGIHSAQHPETQLDLQKPDVIKRKLEEVQQLRRDIEDLRTTMSDRYAQDMGENCVTQ
B2: GBP2 (protein, UniProt P32456 1-588, looked up)
Guanylate-binding protein 2: MAPEINLPGPMSLIDNTKGQLVVNPEALKILSAITQPVVVVAIVGLYRTGKSYLMNKLAGKKNGFSLGSTVKSHTKGIWMWCVPHPKKPEHTLVLLDTEGLGDIEKGDNENDSWIFALAILLSSTFVYNSMGTINQQAMDQLHYVTELTDRIKANSSPGNNSVDDSADFVSFFPAFVWTLRDFTLELEVDGEPITADDYLELSLKLRKGTDKKSKSFNDPRLCIRKFFPKRKCFVFDWPAPKKYLAHLEQLKEEELNPDFIEQVAEFCSYILSHSNVKTLSGGIPVNGPRLESLVLTYVNAISSGDLPCMENAVLALAQIENSAAVEKAIAHYEQQMGQKVQLPTETLQELLDLHRDSEREAIEVFMKNSFKDVDQMFQRKLGAQLEARRDDFCKQNSKASSDCCMALLQDIFGPLEEDVKQGTFSKPGGYRLFTQKLQELKNKYYQVPRKGIQAKEVLKKYLESKEDVADALLQTDQSLSEKEKAIEVERIKAESAEAAKKMLEEIQKKNEEMMEQKEKSYQEHVKQLTEKMERDRAQLMAEQEKTLALKLQEQERLLKEGFENESKRLQKDIWDIQMRSKSLEPIC
B3: PSMB9 (protein, UniProt P28065 21-219, looked up)
Proteasome subunit beta type-9: TTIMAVEFDGGVVMGSDSRVSAGEAVVNRVFDKLSPLHERIYCALSGSAADAQAVADMAAYQLELHGIELEEPPLVLAAANVVRNISYKYREDLSAHLMVAGWDQREGGQVYGTLGGMLTRQPFAIGGSGSTFIYGYVDAAYKPGMSPEECRRFTTDAIALAMSRDGSSGGVIYLVTITAAGVDHRVILGNELPKFYDE
B4: RASAL2 (protein, UniProt Q9UJF2 1-1139, looked up)
Ras GTPase-activating protein …: MQTPEVPAERSPRRRSISGTSTSEKPNSMDTANTSPFKVPGFFSKRLKGSIKRTKSQSKLDRNTSFRLPSLRSTDDRSRGLPKLKESRSHESLLSPCSTVECLDLGRGEPVSVKPLHSSILGQDFCFEVTYLSGSKCFSCNSASERDKWMENLRRTVQPNKDNCRRAENVLRLWIIEAKDLAPKKKYFCELCLDDTLFARTTSKTKADNIFWGEHFEFFSLPPLHSITVHIYKDVEKKKKKDKNNYVGLVNIPTASVTGRQFVEKWYPVSTPTPNKGKTGGPSIRIKSRFQTITILPMEQYKEFAEFVTSNYTMLCSVLEPVISVRNKEELACALVHILQSTGRAKDFLTDLVMSEVDRCGEHDVLIFRENTIATKSIEEYLKLVGQQYLHDALGEFIKALYESDENCEVDPSKCSSSELIDHQSNLKMCCELAFCKIINSYCVFPRELKEVFASWKQQCLNRGKQDISERLISASLFLRFLCPAIMSPSLFNLMQEYPDDRTSRTLTLIAKVIQNLANFAKFGNKEEYMAFMNDFLEHEWGGMKRFLLEISNPDTISNTPGFDGYIDLGRELSVLHSLLWEVVSQLDKGENSFLQATVAKLGPLPRVLADITKSLTNPTPIQQQLRRFTEHNSSPNVSGSLSSGLQKIFEDPTDSDLHKLKSPSQDNTDSYFRGKTLLLVQQASSQSMTYSEKDERESSLPNGRSVSLMDLQDTHAAQVEHASVMLDVPIRLTGSQLSITQVASIKQLRETQSTPQSAPQVRRPLHPALNQPGGLQPLSFQNPVYHLNNPIPAMPKASIDSSLENLSTASSRSQSNSEDFKLSGPSNSSMEDFTKRSTQSEDFSRRHTVPDRHIPLALPRQNSTGQAQIRKVDQGGLGARAKAPPSLPHSASLRSTGSMSVVSAALVAEPVQNGSRSRQQSSSSRESPVPKVRAIQRQQTQQVQSPVDSATMSPVERTAAWVLNNGQYEEDVEETEQNLDEAKHAEKYEQEITKLKERLRVSSRRLEEYERRLLVQEQQMQKLLLEYKARLEDSEERLRRQQEEKDSQMKSIISRLMAVEEELKKDHAEMQAVIDAKQKIIDAQEKRIVSLDSANTRLMSALTQVKERYSMQVRNGISPTNPTKLSITENGEFKNSSC
B5: NAP1L2 (protein, UniProt Q9ULW6 1-460, looked up)
Nucleosome assembly protein …: MAESENRKELSESSQEEAGNQIMVEGLGEHLERGEDAAAGLGDDGKCGEEAAAGLGEEGENGEDTAAGSGEDGKKGGDTDEDSEADRPKGLIGYVLDTDFVESLPVKVKYRVLALKKLQTRAANLESKFLREFHDIERKFAEMYQPLLEKRRQIINAIYEPTEEECEYKSDSEDCDDEEMCHEEMYGNEEGMVHEYVDEDDGYEDYYYDYAVEEEEEEEEEDDIEATGEENKEEEDPKGIPDFWLTVLKNVDTLTPLIKKYDEPILKLLTDIKVKLSDPGEPLSFTLEFHFKPNEYFKNELLTKTYVLKSKLAYYDPHPYRGTAIEYSTGCEIDWNEGKNVTLKTIKKKQKHRIWGTIRTVTEDFPKDSFFNFFSPHGITSNGRDGNDDFLLGHNLRTYIIPRSVLFFSGDALESQQEGVVREVNDAIYDKIIYDNWMAAIEEVKACCKNLEALVEDIDR
B6: VPS52 (protein, UniProt Q8N1B4 2-723, looked up)
Vacuolar protein …: AAAATMAAAARELVLRAGTSDMEEEEGPLAGGPGLQEPLQLGELDITSDEFILDEVDVHIQANLEDELVKEALKTGVDLRHYSKQVELELQQIEQKSIRDYIQESENIASLHNQITACDAVLERMEQMLGAFQSDLSSISSEIRTLQEQSGAMNIRLRNRQAVRGKLGELVDGLVVPSALVTAILEAPVTEPRFLEQLQELDAKAAAVREQEARGTAACADVRGVLDRLRVKAVTKIREFILQKIYSFRKPMTNYQIPQTALLKYRFFYQFLLGNERATAKEIRDEYVETLSKIYLSYYRSYLGRLMKVQYEEVAEKDDLMGVEDTAKKGFFSKPSLRSRNTIFTLGTRGSVISPTELEAPILVPHTAQRGEQRYPFEALFRSQHYALLDNSCREYLFICEFFVVSGPAAHDLFHAVMGRTLSMTLKHLDSYLADCYDAIAVFLCIHIVLRFRNIAAKRDVPALDRYWEQVLALLWPRFELILEMNVQSVRSTDPQRLGGLDTRPHYITRRYAEFSSALVSINQTIPNERTMQLLGQLQVEVENFVLRVAAEFSSRKEQLVFLINNYDMMLGVLMERAADDSKEVESFQQLLNARTQEFIEELLSPPFGGLVAFVKEAEALIERGQAERLRGEEARVTQLIRGFGSSWKSSVESLSQDVMRSFTNFRNGTSIIQGALTQLIQLYHRFHRVLSQPQLRALPARAELINIHHLMVELKKHKPNF

These molecules were tested against T1, HCV ORFs (Gal4-DB fusions) (Hepatitis C virus genotype 1b, UniProt Q9WMX2) (assay: not given). Conditions: HCV protein NS3 as bait; human protein as prey.
T1 construct: expressed in transfected cells; host or cells: Saccharomyces cerevisiae MAV203 (IMAP1) / AH109 (IMAP2)
Format: binding, HCV genotype 1b, isolate con1

Row | Molecule | IMAP Y2H IMAP2 (number of IST)
1 | B1 | 2
2 | B2 | 26
3 | B3 | 1
4 | B4 | 3

Same assay, conditions: HCV protein NS5A as bait; human protein as prey

Row | Molecule | IMAP Y2H IMAP2 (number of IST)
5 | B3 | 38
6 | B5 | 4
7 | B6 | 2

Same assay, conditions: HCV protein NS5B as bait; human protein as prey

Row | Molecule | IMAP Y2H IMAP2 (number of IST)
8 | B3 | 14

What follows are molecules tested on HCV ORFs (Gal4-DB fusions) (assay: not given). Conditions: human protein listed by gene symbol; the value names the HCV protein it interacts with.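 Note: yeast two-hybrid screens using HCV genotype 1b proteins fused to Gal4-DB as baits against prey cDNA libraries from human spleen and foetal brain, IMAP1 via transformation and IMAP2 via mating.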
Format: binding, HCV genotype 1b, isolate con1

Row | Molecule | Interaction with viral protein
9 | B1 | NS3
10 | B2 | NS3
11 | B3 | NS3 and NS5A
12 | B4 | NS3

The molecules below were run against T2, GST-tagged viral proteins (Hepatitis C virus genotype 1b, UniProt Q9WMX2) (assay: Validation by co-affinity purification (CoAP)). Conditions: interaction with HCV protein NS5A.
T2 construct: expressed in transfected cells; host or cells: HEK-293T
Format: binding, HCV genotype 1b, isolate con1
Set-up: key: +: IMAP validation; −: not validated; NA: non assayable due to default of protein expression or to cellular protein directly interacting with GST
Text: C. Validation of Y2H interactions by co-affinity purification assay. Nine co-AP positive assays are shown, representing: NS5A-SORBS2 (1), NS3-CALCOCO2 (2), NS5A-BIN1 (3), NS5A-MOBK1B (4), NS5A-EFEMP1 (5), NS3-PSMB9 and NS5A-PSMB9 (6), NS5A-PPPIRI3L (7), NS3-RASAL2 (8). After pull-down with GST tagged viral baits (+) or with negative control GST alone (−), cellular preys are identified with anti-Flag antibody. Anti-GST antibody identifies either GST alone or GST-tagged viral baits. Expression of cellular preys in cell lysate is controlled by anti-Flag (bottom panel). […]
A random pool of 59 IMAP Y2H interactions was chosen for CoAP assays. Cellular ORFs (interacting domains found in Y2H screens) were cloned by recombinational cloning from a pool of human cDNA library or the MGC cDNA plasmids using KOD polymerase (Toyobo) into pDONR207 (Invitrogen). After validation by sequencing, these ORFs were transferred to pCi-neo-3xFLAG gateway-converted, and HCV ORFs were transferred into pDEST27 (GST fusion in N-term). HEK-293T cells were then co-transfected (JetPei, Polyplus) by each pair of plasmid encoding interacting proteins. Controls are GST alone against 3xFLAG-tagged preys. Two days after transfection, cells were harvested and lysed (0.5% NP-40, 20 mM Tris-HCl (pH 8.0), 180 mM NaCl, 1 mM EDTA, and complete protease inhibitor cocktail). Cell lysates were cleared by centrifugation for 20 min at 13,000 rpm at 4° C. and soluble protein complexes were purified using Glutathione Sepharose 4B beads (GE Healthcare). Beads were then washed extensively four times with lysis buffer and proteins were separated on SDS-PAGE and transferred to nitrocellulose membrane. GST-tagged viral proteins and 3xFLAG-tagged cellular proteins were detected using standard immunoblotting techniques using anti-GST (Covance) and anti-FLAG M2 (Sigma) monoclonal antibodies (21).

Row | Molecule | CoAP
13 | B3 | +
14 | B5 | +
15 | B6 | +

Same assay, conditions: validation of interaction with HCV protein NS3

Row | Molecule | CoAP
16 | B1 | +
17 | B2 | +
18 | B3 | +
19 | B4 | +
